# Source: US20210388087A1 (Chugai, published 2021)
# Positions count from the first letter of the chain named. Names and notes keep the numbering of the source.
# B1: H183/L072 VL S26A (antibody, name in Kabat numbering, V domains shown)
# VH: QVQLVESGGGLVQPGRSLRLSCAASGFTFSNAWMHWVRQAPGKGLEWVAQIKDKGNAYAAYYAPSVKGRFTISRDDSKNSIYLQMNSLKTEDTAVYYCHYVHYASASTVLPAFGVDAWGQGTTVTVSS
# VL: DIVMTQSPLSLPVTPGEPASISCQAAQELVHMNRNTYLHWYQQKPGQAPRLLIYKVSNRFPGVPDRFSGSGSGTDFTLKISRVEAEDVGVYYCAQGTSVPFTFGQGTKLEIK
# notes: Dual-Ig
# B2: H183/L072 VL A25I (antibody, name in Kabat numbering, V domains shown)
# VH: B1 VH
# VL: B1 VL with A25I, A26S
# notes: Dual-Ig
# B3: H183/L072 VL A25N (antibody, name in Kabat numbering, V domains shown)
# VH: B1 VH
# VL: B1 VL with A25N, A26S
# notes: Dual-Ig
# B4: H183/L072 VL A25L (antibody, name in Kabat numbering, V domains shown)
# VH: B1 VH
# VL: B1 VL with A25L, A26S
# notes: Dual-Ig
# B5: H183/L072 VL A25G (antibody, name in Kabat numbering, V domains shown)
# VH: B1 VH
# VL: B1 VL with A25G, A26S
# notes: Dual-Ig
# B6: H183/L072 VL A25M (antibody, name in Kabat numbering, V domains shown)
# VH: B1 VH
# VL: B1 VL with A25M, A26S
# notes: Dual-Ig
# B7: H183/L072 VL A25P (antibody, name in Kabat numbering, V domains shown)
# VH: B1 VH
# VL: B1 VL with A25P, A26S
# notes: Dual-Ig
# B8: H183/L072 VH Y58W (antibody, name in Kabat numbering, V domains shown)
# VH: B1 VH with Y61W
# VL: B1 VL with A26S
# B9: H183/L072 VH Y58V (antibody, name in Kabat numbering, V domains shown)
# VH: B1 VH with Y61V
# VL: B1 VL with A26S
# B10: H183/L072 VH Y97I (antibody, name in Kabat numbering, V domains shown)
# VH: B1 VH with Y103I
# VL: B1 VL with A26S
# B11: H183/L072 VH Y59F (antibody, name in Kabat numbering, V domains shown)
# VH: B1 VH with Y62F
# VL: B1 VL with A26S
# B12: H183/L072 VH Y59R (antibody, name in Kabat numbering, V domains shown)
# VH: B1 VH with Y62R
# VL: B1 VL with A26S
# B13: H183/L072 VH Y58Q (antibody, name in Kabat numbering, V domains shown)
# VH: B1 VH with Y61Q
# VL: B1 VL with A26S
# B14: H183/L072 VH Y59D (antibody, name in Kabat numbering, V domains shown)
# VH: B1 VH with Y62D
# VL: B1 VL with A26S
# B15: H183/L072 VH Y58M (antibody, name in Kabat numbering, V domains shown)
# VH: B1 VH with Y61M
# VL: B1 VL with A26S
# B16: H183/L072 VH Y58N (antibody, name in Kabat numbering, V domains shown)
# VH: B1 VH with Y61N
# VL: B1 VL with A26S
# B17: H183/L072 VH Y59S (antibody, name in Kabat numbering, V domains shown)
# VH: B1 VH with Y62S
# VL: B1 VL with A26S
# B18: H183/L072 VH Y58P (antibody, name in Kabat numbering, V domains shown)
# VH: B1 VH with Y61P
# VL: B1 VL with A26S
# B19: H183/L072 VH Y59N (antibody, name in Kabat numbering, V domains shown)
# VH: B1 VH with Y62N
# VL: B1 VL with A26S
# B20: H183/L072 VH Y59A (antibody, name in Kabat numbering, V domains shown)
# VH: B1 VH with Y62A
# VL: B1 VL with A26S
# B21: H183/L072 VH Y59P (antibody, name in Kabat numbering, V domains shown)
# VH: B1 VH with Y62P
# VL: B1 VL with A26S
# B22: H183/L072 VH Y59I (antibody, name in Kabat numbering, V domains shown)
# VH: B1 VH with Y62I
# VL: B1 VL with A26S
# B23: H183/L072 VH Y94I (antibody, name in Kabat numbering, V domains shown)
# VH: B1 VH with Y100I
# VL: B1 VL with A26S
# B24: H183/L072 VH Y59M (antibody, name in Kabat numbering, V domains shown)
# VH: B1 VH with Y62M
# VL: B1 VL with A26S
# B25: H183/L072 VH Y94A (antibody, name in Kabat numbering, V domains shown)
# VH: B1 VH with Y100A
# VL: B1 VL with A26S
# B26: H183/L072 VH Y59H (antibody, name in Kabat numbering, V domains shown)
# VH: B1 VH with Y62H
# VL: B1 VL with A26S
# B27: H183/L072 VH Y97A (antibody, name in Kabat numbering, V domains shown)
# VH: B1 VH with Y103A
# VL: B1 VL with A26S
# B28: H183/L072 VH Y59L (antibody, name in Kabat numbering, V domains shown)
# VH: B1 VH with Y62L
# VL: B1 VL with A26S
# B29: H183/L072 VH Y59V (antibody, name in Kabat numbering, V domains shown)
# VH: B1 VH with Y62V
# VL: B1 VL with A26S
# B30: H183/L072 VH Y59T (antibody, name in Kabat numbering, V domains shown)
# VH: B1 VH with Y62T
# VL: B1 VL with A26S
# B31: H183/L072 VH Y94L (antibody, name in Kabat numbering, V domains shown)
# VH: B1 VH with Y100L
# VL: B1 VL with A26S
# B32: H183/L072 VH Y59E (antibody, name in Kabat numbering, V domains shown)
# VH: B1 VH with Y62E
# VL: B1 VL with A26S
# B33: H183/L072 VH Y94P (antibody, name in Kabat numbering, V domains shown)
# VH: B1 VH with Y100P
# VL: B1 VL with A26S
# B34: H183/L072 VH Y59W (antibody, name in Kabat numbering, V domains shown)
# VH: B1 VH with Y62W
# VL: B1 VL with A26S
# B35: H183/L072 VH Y58S (antibody, name in Kabat numbering, V domains shown)
# VH: B1 VH with Y61S
# VL: B1 VL with A26S
# B36: H183/L072 VH Y97P (antibody, name in Kabat numbering, V domains shown)
# VH: B1 VH with Y103P
# VL: B1 VL with A26S
# B37: H183/L072 VH Y58T (antibody, name in Kabat numbering, V domains shown)
# VH: B1 VH with Y61T
# VL: B1 VL with A26S
# B38: H183/L072 VH Y58R (antibody, name in Kabat numbering, V domains shown)
# VH: B1 VH with Y61R
# VL: B1 VL with A26S
# B39: H183/L072 VH Y94M (antibody, name in Kabat numbering, V domains shown)
# VH: B1 VH with Y100M
# VL: B1 VL with A26S
# B40: H183/L072 VH Y59Q (antibody, name in Kabat numbering, V domains shown)
# VH: B1 VH with Y62Q
# VL: B1 VL with A26S
# B41: H183/L072 VH Y97M (antibody, name in Kabat numbering, V domains shown)
# VH: B1 VH with Y103M
# VL: B1 VL with A26S
# B42: H183/L072 VH Y97L (antibody, name in Kabat numbering, V domains shown)
# VH: B1 VH with Y103L
# VL: B1 VL with A26S
# B43: H183/L072 VH Y59G (antibody, name in Kabat numbering, V domains shown)
# VH: B1 VH with Y62G
# VL: B1 VL with A26S
# B44: H183/L072 VH Y59K (antibody, name in Kabat numbering, V domains shown)
# VH: B1 VH with Y62K
# VL: B1 VL with A26S
# Molecular target: T1, Human CD137 ECD (human)
# T1 construct: entry includes C-terminal His-tag and biotin acceptor peptide; also called human CD137 extracellular domain; 4-1BB
# T1 sequence (chain, as listed by the source limits assumed): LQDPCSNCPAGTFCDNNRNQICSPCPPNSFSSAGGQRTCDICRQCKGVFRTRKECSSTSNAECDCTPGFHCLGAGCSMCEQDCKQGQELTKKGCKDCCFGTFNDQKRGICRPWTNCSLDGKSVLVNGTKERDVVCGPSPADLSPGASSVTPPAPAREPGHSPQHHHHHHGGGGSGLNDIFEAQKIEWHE
# Experiment: Biacore SPR, vs parent H183/L072
row,Binder,fold change of affinity
1,B1,0.8 fold
2,B2,0.2 fold
3,B3,0.2 fold
4,B4,0.1 fold
5,B5,0.7 fold
6,B6,0.1 fold
7,B7,1.4 fold

# Molecular target: T2, Human CD3eg linker (human)
# T2 construct: Single chain: epsilon and gamma subunits of human CD3 joined by a 29-mer linker, Flag-tag at the C-terminus; also called recombinant human CD3
# T2 chain: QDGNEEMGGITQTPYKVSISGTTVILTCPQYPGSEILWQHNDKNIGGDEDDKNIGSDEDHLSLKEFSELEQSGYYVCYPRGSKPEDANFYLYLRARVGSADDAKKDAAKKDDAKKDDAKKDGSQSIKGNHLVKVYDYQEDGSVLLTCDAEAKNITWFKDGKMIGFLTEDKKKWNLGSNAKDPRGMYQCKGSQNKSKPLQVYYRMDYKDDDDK
# Experiment: Biacore SPR, vs template H183/L072
row,Binder,fold change of affinity
1,B8,0 fold
2,B9,0.3 fold
3,B10,0 fold
4,B11,0.6 fold
5,B12,1.3 fold
6,B13,0.3 fold
7,B14,1.1 fold
8,B15,0.4 fold
9,B16,0.5 fold
10,B17,1.1 fold
11,B18,0.5 fold
12,B19,1.2 fold
13,B20,1 fold
14,B21,0.7 fold
15,B22,0.9 fold
16,B23,0 fold
17,B24,1 fold
18,B25,0.4 fold
19,B26,1.4 fold

row,Binder,fold change of affinity
1,B27,0 fold
2,B28,1 fold
3,B29,1.2 fold
4,B30,1.2 fold
5,B31,0.8 fold
6,B32,1.1 fold
7,B33,0 fold
8,B34,0.6 fold
9,B35,0.4 fold
10,B36,0 fold
11,B37,0.2 fold
12,B38,0.5 fold
13,B39,0 fold
14,B40,1.1 fold
15,B41,0 fold
16,B42,0 fold
17,B43,1.1 fold
18,B44,1.3 fold
